B1: E3 ubiquitin-protein ligase Hakai (Mus musculus), Q9JIY2 (parent)
chain: MDHTDNELQGTNSSGSLGGLDVRRRIPIKLISKQASKVKPAPRTQRTVSRMPAKAPQGDEEGFDYNEEQRYDCKGGELFGNQRRFPGHLFWDFKINILGEKDDTPVHFCDKCGLPIKVYGRMIPCKHVFCYDCAILHEKKGDKMCPGCSDPVQRIEQCTRGSLFMCSIVQGCKRTYLSQRDLQAHINHRHMRAGKPVTRASLENVHPPIAPPPTDIPDRFIMPPDKHHMSHIPPKQHIMMPPPPLQHVPHEHYNQPHEDIRAPPAELSMAPPPPRSVSQETFRISTRKHSNLITVPIQDDSSSGAREPPPPAPAPAHHHPEYQGQPVVSHPHHIMPPQQHYAPPPPPPPPISHPMPHPPQAAGTPHLVYSQAPPPPMTSAPPPITPPPGHIIAQMPPYMNHPPPGPPPPQHGGPPVTAPPPHHYNPNSLPQFTEDQGTLSPPFTQPGGMSPGIWPAPRGPPPPPRMQGPPSQTPLPGPHHPDQTRYRPYYQ

Variants of: B1
Conditions: with cadh1_human CDH1, P12830

effect of a mutation on the interaction	Variant
disrupting interaction	MDHTDNELQGTNSSGSLGGLDVRRRIPIKLISKQASKVKPAPRTQRTVSRMPAKAPQGDEEGFDYNEEQRYDCKGGELFGNQRRFPGHLFWDFKINILGEKDDTPVHFCDKCGLPIKVYGRMIPCKAVFCYDCAILHEKKGDKMCPGCSDPVQRIEQCTRGSLFMCSIVQGCKRTYLSQRDLQAHINHRHMRAGKPVTRASLENVHPPIAPPPTDIPDRFIMPPDKHHMSHIPPKQHIMMPPPPLQHVPHEHYNQPHEDIRAPPAELSMAPPPPRSVSQETFRISTRKHSNLITVPIQDDSSSGAREPPPPAPAPAHHHPEYQGQPVVSHPHHIMPPQQHYAPPPPPPPPISHPMPHPPQAAGTPHLVYSQAPPPPMTSAPPPITPPPGHIIAQMPPYMNHPPPGPPPPQHGGPPVTAPPPHHYNPNSLPQFTEDQGTLSPPFTQPGGMSPGIWPAPRGPPPPPRMQGPPSQTPLPGPHHPDQTRYRPYYQ [H127A]

Variants of: B1
Conditions: with src8_human CTTN

effect of a mutation on the interaction	Variant
disrupting interaction	MDHTDNELQGTNSSGSLGGLDVRRRIPIKLISKQASKVKPAPRTQRTVSRMPAKAPQGDEEGFDYNEEQRYDCKGGELFGNQRRFPGHLFWDFKINILGEKDDTPVHFCDKCGLPIKVYGRMIPCKAVFCYDCAILHEKKGDKMCPGCSDPVQRIEQCTRGSLFMCSIVQGCKRTYLSQRDLQAHINHRHMRAGKPVTRASLENVHPPIAPPPTDIPDRFIMPPDKHHMSHIPPKQHIMMPPPPLQHVPHEHYNQPHEDIRAPPAELSMAPPPPRSVSQETFRISTRKHSNLITVPIQDDSSSGAREPPPPAPAPAHHHPEYQGQPVVSHPHHIMPPQQHYAPPPPPPPPISHPMPHPPQAAGTPHLVYSQAPPPPMTSAPPPITPPPGHIIAQMPPYMNHPPPGPPPPQHGGPPVTAPPPHHYNPNSLPQFTEDQGTLSPPFTQPGGMSPGIWPAPRGPPPPPRMQGPPSQTPLPGPHHPDQTRYRPYYQ [H127A]

Variants of: B1
Conditions: with cadh1_human CDH1, P12830
Remark: another data set of the same source

effect of a mutation on the interaction	Variant
disrupting interaction	MDHTDNELQGTNSSGSLGGLDVRRRIPIKLISKQASKVKPAPRTQRTVSRMPAKAPQGDEEGFDYNEEQRYDCKGGELFGNQRRFPGHLFWDFKINILGEKDDTPVHFCDKCGLPIKVYGRMIPCKHVFCYDCAILHEKKGDKMCPGCSDPVQRIEQCTRGSLFMCSIVQGCKRTYLSQRDLQAHINHRAMRAGKPVTRASLENVHPPIAPPPTDIPDRFIMPPDKHHMSHIPPKQHIMMPPPPLQHVPHEHYNQPHEDIRAPPAELSMAPPPPRSVSQETFRISTRKHSNLITVPIQDDSSSGAREPPPPAPAPAHHHPEYQGQPVVSHPHHIMPPQQHYAPPPPPPPPISHPMPHPPQAAGTPHLVYSQAPPPPMTSAPPPITPPPGHIIAQMPPYMNHPPPGPPPPQHGGPPVTAPPPHHYNPNSLPQFTEDQGTLSPPFTQPGGMSPGIWPAPRGPPPPPRMQGPPSQTPLPGPHHPDQTRYRPYYQ [H190A]

Variants of: B1
Conditions: with src8_human CTTN
Remark: another data set of the same source

effect of a mutation on the interaction	Variant
disrupting interaction	MDHTDNELQGTNSSGSLGGLDVRRRIPIKLISKQASKVKPAPRTQRTVSRMPAKAPQGDEEGFDYNEEQRYDCKGGELFGNQRRFPGHLFWDFKINILGEKDDTPVHFCDKCGLPIKVYGRMIPCKHVFCYDCAILHEKKGDKMCPGCSDPVQRIEQCTRGSLFMCSIVQGCKRTYLSQRDLQAHINHRAMRAGKPVTRASLENVHPPIAPPPTDIPDRFIMPPDKHHMSHIPPKQHIMMPPPPLQHVPHEHYNQPHEDIRAPPAELSMAPPPPRSVSQETFRISTRKHSNLITVPIQDDSSSGAREPPPPAPAPAHHHPEYQGQPVVSHPHHIMPPQQHYAPPPPPPPPISHPMPHPPQAAGTPHLVYSQAPPPPMTSAPPPITPPPGHIIAQMPPYMNHPPPGPPPPQHGGPPVTAPPPHHYNPNSLPQFTEDQGTLSPPFTQPGGMSPGIWPAPRGPPPPPRMQGPPSQTPLPGPHHPDQTRYRPYYQ [H190A]

Variants of: B1
Conditions: with cadh1_human CDH1, P12830
Remark: another data set of the same source

effect of a mutation on the interaction	Variant
disrupting interaction	MDHTDNELQGTNSSGSLGGLDVRRRIPIKLISKQASKVKPAPRTQRTVSRMPAKAPQGDEEGFDYNEEQRYDCKGGELFGNQRRFPGHLFWDFKINILGEKDDTPVHFCDKCGLPIKVYGRMIPCKHVFCYDCAILHEKKGDKMCPGCSDPVQRIEQCTRGSLFMCSIVQGCKRTALSQRDLQAHINHRHMRAGKPVTRASLENVHPPIAPPPTDIPDRFIMPPDKHHMSHIPPKQHIMMPPPPLQHVPHEHYNQPHEDIRAPPAELSMAPPPPRSVSQETFRISTRKHSNLITVPIQDDSSSGAREPPPPAPAPAHHHPEYQGQPVVSHPHHIMPPQQHYAPPPPPPPPISHPMPHPPQAAGTPHLVYSQAPPPPMTSAPPPITPPPGHIIAQMPPYMNHPPPGPPPPQHGGPPVTAPPPHHYNPNSLPQFTEDQGTLSPPFTQPGGMSPGIWPAPRGPPPPPRMQGPPSQTPLPGPHHPDQTRYRPYYQ [Y176A]

Variants of: B1
Conditions: with src8_human CTTN
Remark: another data set of the same source

effect of a mutation on the interaction	Variant
disrupting interaction	MDHTDNELQGTNSSGSLGGLDVRRRIPIKLISKQASKVKPAPRTQRTVSRMPAKAPQGDEEGFDYNEEQRYDCKGGELFGNQRRFPGHLFWDFKINILGEKDDTPVHFCDKCGLPIKVYGRMIPCKHVFCYDCAILHEKKGDKMCPGCSDPVQRIEQCTRGSLFMCSIVQGCKRTALSQRDLQAHINHRHMRAGKPVTRASLENVHPPIAPPPTDIPDRFIMPPDKHHMSHIPPKQHIMMPPPPLQHVPHEHYNQPHEDIRAPPAELSMAPPPPRSVSQETFRISTRKHSNLITVPIQDDSSSGAREPPPPAPAPAHHHPEYQGQPVVSHPHHIMPPQQHYAPPPPPPPPISHPMPHPPQAAGTPHLVYSQAPPPPMTSAPPPITPPPGHIIAQMPPYMNHPPPGPPPPQHGGPPVTAPPPHHYNPNSLPQFTEDQGTLSPPFTQPGGMSPGIWPAPRGPPPPPRMQGPPSQTPLPGPHHPDQTRYRPYYQ [Y176A]

Variants of: B1
Conditions: with cadh1_human CDH1, P12830
Remark: another data set of the same source

effect of a mutation on the interaction	Variant
disrupting interaction	MDHTDNELQGTNSSGSLGGLDVRRRIPIKLISKQASKVKPAPRTQRTVSRMPAKAPQGDEEGFDYNEEQRYDCKGGELFGNQRRFPGHLFWDFKINILGEKDDTPVHFCDKCGLPIKVYGRMIPCKHVFCYDCAILHEKKGDKMCPGCSDPVQRIEQCTRGSLFMCSIVQGAKRTYLSQRDLQAHINHRHMRAGKPVTRASLENVHPPIAPPPTDIPDRFIMPPDKHHMSHIPPKQHIMMPPPPLQHVPHEHYNQPHEDIRAPPAELSMAPPPPRSVSQETFRISTRKHSNLITVPIQDDSSSGAREPPPPAPAPAHHHPEYQGQPVVSHPHHIMPPQQHYAPPPPPPPPISHPMPHPPQAAGTPHLVYSQAPPPPMTSAPPPITPPPGHIIAQMPPYMNHPPPGPPPPQHGGPPVTAPPPHHYNPNSLPQFTEDQGTLSPPFTQPGGMSPGIWPAPRGPPPPPRMQGPPSQTPLPGPHHPDQTRYRPYYQ [C172A]

Variants of: B1
Conditions: with src8_human CTTN
Remark: another data set of the same source

effect of a mutation on the interaction	Variant
disrupting interaction	MDHTDNELQGTNSSGSLGGLDVRRRIPIKLISKQASKVKPAPRTQRTVSRMPAKAPQGDEEGFDYNEEQRYDCKGGELFGNQRRFPGHLFWDFKINILGEKDDTPVHFCDKCGLPIKVYGRMIPCKHVFCYDCAILHEKKGDKMCPGCSDPVQRIEQCTRGSLFMCSIVQGAKRTYLSQRDLQAHINHRHMRAGKPVTRASLENVHPPIAPPPTDIPDRFIMPPDKHHMSHIPPKQHIMMPPPPLQHVPHEHYNQPHEDIRAPPAELSMAPPPPRSVSQETFRISTRKHSNLITVPIQDDSSSGAREPPPPAPAPAHHHPEYQGQPVVSHPHHIMPPQQHYAPPPPPPPPISHPMPHPPQAAGTPHLVYSQAPPPPMTSAPPPITPPPGHIIAQMPPYMNHPPPGPPPPQHGGPPVTAPPPHHYNPNSLPQFTEDQGTLSPPFTQPGGMSPGIWPAPRGPPPPPRMQGPPSQTPLPGPHHPDQTRYRPYYQ [C172A]

Variants of: B1
Conditions: with cadh1_human CDH1, P12830
Remark: another data set of the same source

effect of a mutation on the interaction	Variant
disrupting interaction	MDHTDNELQGTNSSGSLGGLDVRRRIPIKLISKQASKVKPAPRTQRTVSRMPAKAPQGDEEGFDYNEEQRYDCKGGELFGNQRRFPGHLFWDFKINILGEKDDTPVHFCDKCGLPIKVYGRMIPCKHVFCYDCAILHEKKGDKMCPGCSDPVQRIEQCTRGSLFMCSIVQGCKRTYLSQRDLQAAINHRHMRAGKPVTRASLENVHPPIAPPPTDIPDRFIMPPDKHHMSHIPPKQHIMMPPPPLQHVPHEHYNQPHEDIRAPPAELSMAPPPPRSVSQETFRISTRKHSNLITVPIQDDSSSGAREPPPPAPAPAHHHPEYQGQPVVSHPHHIMPPQQHYAPPPPPPPPISHPMPHPPQAAGTPHLVYSQAPPPPMTSAPPPITPPPGHIIAQMPPYMNHPPPGPPPPQHGGPPVTAPPPHHYNPNSLPQFTEDQGTLSPPFTQPGGMSPGIWPAPRGPPPPPRMQGPPSQTPLPGPHHPDQTRYRPYYQ [H185A]

Variants of: B1
Conditions: with src8_human CTTN
Remark: another data set of the same source

effect of a mutation on the interaction	Variant
disrupting interaction	MDHTDNELQGTNSSGSLGGLDVRRRIPIKLISKQASKVKPAPRTQRTVSRMPAKAPQGDEEGFDYNEEQRYDCKGGELFGNQRRFPGHLFWDFKINILGEKDDTPVHFCDKCGLPIKVYGRMIPCKHVFCYDCAILHEKKGDKMCPGCSDPVQRIEQCTRGSLFMCSIVQGCKRTYLSQRDLQAAINHRHMRAGKPVTRASLENVHPPIAPPPTDIPDRFIMPPDKHHMSHIPPKQHIMMPPPPLQHVPHEHYNQPHEDIRAPPAELSMAPPPPRSVSQETFRISTRKHSNLITVPIQDDSSSGAREPPPPAPAPAHHHPEYQGQPVVSHPHHIMPPQQHYAPPPPPPPPISHPMPHPPQAAGTPHLVYSQAPPPPMTSAPPPITPPPGHIIAQMPPYMNHPPPGPPPPQHGGPPVTAPPPHHYNPNSLPQFTEDQGTLSPPFTQPGGMSPGIWPAPRGPPPPPRMQGPPSQTPLPGPHHPDQTRYRPYYQ [H185A]

Variants of: B1
Conditions: with cadh1_human CDH1, P12830
Remark: another data set of the same source

effect of a mutation on the interaction	Variant
disrupting interaction	MDHTDNELQGTNSSGSLGGLDVRRRIPIKLISKQASKVKPAPRTQRTVSRMPAKAPQGDEEGFDYNEEQRYDCKGGELFGNQRRFPGHLFWDFKINILGEKDDTPVHFCDKCGLPIKVYGRMIPCKHVFCYDCAILHEKKGDKMCPGCSDPVQRIEQCTRGSLFMASIVQGCKRTYLSQRDLQAHINHRHMRAGKPVTRASLENVHPPIAPPPTDIPDRFIMPPDKHHMSHIPPKQHIMMPPPPLQHVPHEHYNQPHEDIRAPPAELSMAPPPPRSVSQETFRISTRKHSNLITVPIQDDSSSGAREPPPPAPAPAHHHPEYQGQPVVSHPHHIMPPQQHYAPPPPPPPPISHPMPHPPQAAGTPHLVYSQAPPPPMTSAPPPITPPPGHIIAQMPPYMNHPPPGPPPPQHGGPPVTAPPPHHYNPNSLPQFTEDQGTLSPPFTQPGGMSPGIWPAPRGPPPPPRMQGPPSQTPLPGPHHPDQTRYRPYYQ [C166A]

Variants of: B1
Conditions: with src8_human CTTN
Remark: another data set of the same source

effect of a mutation on the interaction	Variant
disrupting interaction	MDHTDNELQGTNSSGSLGGLDVRRRIPIKLISKQASKVKPAPRTQRTVSRMPAKAPQGDEEGFDYNEEQRYDCKGGELFGNQRRFPGHLFWDFKINILGEKDDTPVHFCDKCGLPIKVYGRMIPCKHVFCYDCAILHEKKGDKMCPGCSDPVQRIEQCTRGSLFMASIVQGCKRTYLSQRDLQAHINHRHMRAGKPVTRASLENVHPPIAPPPTDIPDRFIMPPDKHHMSHIPPKQHIMMPPPPLQHVPHEHYNQPHEDIRAPPAELSMAPPPPRSVSQETFRISTRKHSNLITVPIQDDSSSGAREPPPPAPAPAHHHPEYQGQPVVSHPHHIMPPQQHYAPPPPPPPPISHPMPHPPQAAGTPHLVYSQAPPPPMTSAPPPITPPPGHIIAQMPPYMNHPPPGPPPPQHGGPPVTAPPPHHYNPNSLPQFTEDQGTLSPPFTQPGGMSPGIWPAPRGPPPPPRMQGPPSQTPLPGPHHPDQTRYRPYYQ [C166A]
